Measured values: the RNAGym collection of RNA variant scans (doi:10.1021/acssynbio.7b00057)

B1: Pistol ribozyme (parent)
chain: GGGUCGUUGUUCCAUAAUCGCGUGGAUAUGGCACGCAAGUUUCUACCGGGCACCGUAAAUGUCCGACUGGAGCCGUUCGGGCGGCUAUAAACAGACCUCAGGCCCGAAGCGUGGCGGCACCUGCCGCCGGUGGUAAAAAAGAUCGGAAGAGCACACGUCU

Variants of: B1
Experiment: aptazyme ON/OFF ratio, guanine; higher = stronger switching; co-transcriptional cleavage with and without guanine

Variant	aptazyme ON/OFF ratio
G9U U10G U11C C12U C13G	1.17
G9U U10G U11C C12U C13A	1.14
G9U U10G U11C C12U C13U	1.18
G9U U10C U11A C13U	1.48
G9U U10C U11A C13G	1.09
G9U U10C U11A C13A	1.31
G9U U10C U11G C12G C13U	1.12
G9U U10C U11G C12G C13G	1.24
G9U U10C U11G C12G C13A	1.17
G9U U10C C12G C13A	1.35
G9U U10C C12G C13G	1.32
G9U U10C C12G C13U	1.18
G9U U10G U11A C12G	2.23
G9U U10G U11A C12U	1.3
G9U U10G U11A C12A	1.63
G9U U11C C12A C13A	1.48
G9U U11C C12A C13G	1.36
G9U U11C C12A C13U	1.36
G9U U10G U11A C13A	1.13
G9U U10G U11A C13G	1.14
G9U U10G U11A C13U	1.08
G9U U10C U11C C12U C13A	1.11
G9U U10C U11C C12U C13G	1.09
G9U U10C U11C C12U C13U	1.18

Variant	aptazyme ON/OFF ratio
G9U U10C U11A C12U C13A	1.49
G9U U10C U11A C12U C13G	1.35
G9U U10C U11A C12U C13U	1.54
G9U U10G U11C C12G	1.65
G9U U10G U11C C12A	1.69
G9U U10G U11C C12U	1.08
G9U U10C C12A C13G	1.61
G9U U10C C12A C13A	1.39
G9U U10C C12A C13U	1.38
G9U U10C U11C C12A	1.08
G9U U10C U11C C12U	1.31
G9U U10C U11C C12G	1.12
G9U U10G U11A C12G C13U	1.07
G9U U10G U11A C12G C13G	1.08
G9U U10G U11A C12G C13A	1.18
G9U U11A C12U C13G	1.5
G9U U11A C12U C13U	1.65
G9U U11A C12U C13A	1.02
G9U U10A U11G C12U C13G	1.47
G9U U10A U11G C12U C13A	1.21
G9U U10A U11G C12U C13U	1.7
G9U U10A U11G C13A	1.56
G9U U10A U11G C13G	1.22
G9U U10A U11G C13U	1.72

Variant	aptazyme ON/OFF ratio
G9U U10G C12G C13U	1.23
G9U U10G C12G C13A	1.44
G9U U10G C12G C13G	1.41
G9U U10G U11G C13U	1.26
G9U U10G U11G C13A	1.25
G9U U10G U11G C13G	1.19
G9U U10A U11G C12G C13G	1.11
G9U U10A U11G C12G C13U	1.14
G9U U10A U11G C12G C13A	1.1
G9U U10C U11C C12A C13U	1.2
G9U U10C U11C C12A C13G	1.27
G9U U10C U11C C12A C13A	1.15
G9U U11A C13A	1.48
G9U U11A C13G	1.13
G9U U11A C13U	1.44
G9U U10C U11A C12A C13A	1.53
G9U U10C U11A C12A C13G	1.24
G9U U10C U11A C12A C13U	1.57
G9U U10G U11G C12A	1.75
G9U U10G U11G C12G	1.82
G9U U10G U11G C12U	1.33
G9U U10G C12A C13A	0.843
G9U U10G C12A C13G	1.17
G9U U10G C12A C13U	1.45

Variant	aptazyme ON/OFF ratio
G9U U10G U11C	1.28
G9U U10G U11G	1.55
G9U U10G U11A	1.2
G9U U10G C13U	1.65
G9U U10G C13G	1.29
G9U U10G C13A	1.52
G9U U11C	2.53
G9U U11A	1.24
G9U U10C C13U	1.72
G9U U10C C13A	1.22
G9U U10C C13G	1.13
G9U U11A C12A C13A	1.59
G9U U11A C12A C13U	1.23
G9U U11A C12A C13G	1.31
G9U U10G U11C C13U	1.14
G9U U10G U11C C13G	1.1
G9U U10G U11C C13A	1.26
G9U U10G C12U C13A	1.35
G9U U10G C12U C13U	1.26
G9U U10G C12U C13G	1.66
G9U U10G U11G C12A C13U	1.38
G9U U10G U11G C12A C13A	1.28
G9U U10G U11G C12A C13G	1.13
G9U U11C C12A	2

Variant	aptazyme ON/OFF ratio
G9U U11C C12G	1.83
G9U U10A U11G C12G	2.12
G9U U10A U11G C12U	1.27
G9U U10G U11C C12G C13U	1.27
G9U U10G U11C C12G C13A	1.27
G9U U10G U11C C12G C13G	1.06
G9U U10G U11G C12U C13G	1.17
G9U U10G U11G C12U C13U	1.34
G9U U10G U11G C12U C13A	1.1
G9U U10C U11G C12A C13U	1.08
G9U U10C U11G C12A C13A	1.34
G9U U10C U11G C12A C13G	1.22
G9U U10C U11G C12G	1.2
G9U U10C U11G C12U	2.12
G9U U10C U11G C12A	1.13
G9U U10G U11A C12U C13U	1.85
G9U U10G U11A C12U C13G	1.24
G9U U10G U11A C12U C13A	1.21
G9U U10C U11A C12U	1.89
G9U U10C U11A C12A	1.47
G9U U10C U11A C12G	1.76
G9U U11A C12G C13A	1.82
G9U U11A C12G C13U	1
G9U U11A C12G C13G	1.2

Variant	aptazyme ON/OFF ratio
G9U U10C U11G C12U C13U	1.41
G9U U10C U11G C12U C13G	1.34
G9U U10C U11G C12U C13A	1.46
G9U U10C U11C C13G	1.06
G9U U10C U11C C13U	1.03
G9U U10C U11C C13A	1.04
G9U U10G U11G C12G C13G	1.31
G9U U10G U11G C12G C13U	1.27
G9U U10G U11G C12G C13A	1.25
G9U U10C U11G C13A	1.36
G9U U10C U11G C13U	1.52
G9U U10C U11G C13G	1.18
G9U U10G U11A C12A C13G	1.7
G9U U10G U11A C12A C13A	1.56
G9U U10G U11A C12A C13U	1.37
G9U U10C U11A C12G C13A	1.48
G9U U10C U11A C12G C13G	1.43
G9U U10C U11A C12G C13U	1.27
G9U U10C C12U C13A	1.69
G9U U10C C12U C13U	1.63
G9U U10C C12U C13G	1.34
G9U U11A C12G	1.55
G9U U11A C12A	2.63
G9U U11A C12U	1.47

Variant	aptazyme ON/OFF ratio
G9U U10C C12A	1.77
G9U U10C C12G	2.12
G9U U10C C12U	1.71
G9U U10A U11G C12A C13U	1.25
G9U U10A U11G C12A C13G	1.37
G9U U10A U11G C12A C13A	1.14
G9U U11C C12G C13G	1.28
G9U U11C C12G C13A	1.3
G9U U11C C12G C13U	1.68
G9U U10G U11C C12A C13G	1.29
G9U U10G U11C C12A C13U	1.23
G9U U10G U11C C12A C13A	1.34
G9U U10C U11C C12G C13G	1.11
G9U U10C U11C C12G C13A	1.08
G9U U10C U11C C12G C13U	1.1
G9U U10C U11A	3.16
G9U U10C U11C	1.63
G9U U10C U11G	3.45
G9U U10G	4.12
G9U U10C	4.48
G9U U10G C12G	1.64
G9U U10G C12A	1.47
G9U U10G C12U	1.62
